From patent US20140274782A1, “AFFINITY REAGENTS AND METHODS FOR DETECTION, PURIFICATION, AND PROTEOMIC ANALYSIS OF METHYLATED PROTEINS” (The Board of Trustees of the Leland Stanford Junior …, priority 2013, published 2014)

System: 3×MBT domain of L3MBTL1
Assay: SILAC proteomic pull-down 3×MBT vs 3×MBTD355N from 293T nuclear extract, LC-MS/MS
Assay type: binding, human
Conditions: SILAC ratio, 293T nuclear extract pull-down; * = protein identified in only one labeling experiment
Experimental: Protein pull-downs were performed as described above using 600 μg of nuclear extract prepared with isotopic labels as indicated. After eluting with glutathione, 3×MBT domain was removed by dialysis into high salt and rebinding to GSH-sepharose. Bound proteins were separated by SDS-PAGE and analyzed by in-gel tryptic digest followed by LC-MS/MS. Peptides were identified using MaxQuant version 1.2.2.5 (Cox and Mann (2008) Nat. Biotechnol. 26, 1367-1372) and candidate methylated peptides were verified by manual inspection.
For stable isotope labeling by amino acids in cell culture (SILAC) experiments HEK 293T cells were grown for at least six doublings in DMEM for SILAC supplemented with 10% dialyzed fetal bovine serum (FBS), 230 mg/L L-proline and either 100 mg/L each of L-lysine and L-arginine (“light” medium), D4-L-lysine and ^13C6-L-arginine (“medium” media), or ^13C6^15N2-L-lysine and ^13C6^15N4-L-arginine (Thermo Scientific). Heavy methyl labeling used DMEM without L-Methionine or L-Cysteine supplemented with D3^13C-L-Methionine (Sigma), L-Cysteine (Sigma) and 10% dialyzed FBS.
600 μg of nuclear extract was incubated overnight rotating at 4° C. with 20 μl packed 3×MBT or 3×MBTD355N beads in a total volume of 250 μL with binding buffer. Supernatant was removed and saved for use as a loading control. Beads were washed 4×5 minutes with 0.5 mL binding buffer. Protein was eluted by incubating in 20 μL elution buffer (10 mg/mL glutathione in 50 mM Tris pH 8.0) rotating at 4° C. for four hours. Elutions from 3×MBT and 3×MBTD355N were combined and dialyzed overnight at 4° C. against 10,000× volume of dissociation buffer (50 mM Tris pH 7.5, 750 mM NaCl) in a 0.1 mL Slide-A-Lyzer MINI Dialysis Device with 3.5K molecular weight cutoff (Thermo Scientific). 80 μL of GSH-Sepharose was prepared by washing briefly three times with 0.5 mL binding buffer. Dialyzed proteins were added to the GSH-Sepharose and incubated 4 hours rotating at 4° C. to deplete the GST-fusion domains. Supernatant was transferred to a fresh 1.5 mL tube. Proteins were separated by SDS-PAGE on a 10% polyacrylamide gel and stained using SilverQuest Silver Staining Kit (Life Technologies). Lanes were excised, residual 3×MBT band was removed, and gel was diced into 0.5 mm cubes. Gel pieces were destained and processed by in-gel digestion (Carlson et al. (2011) Science Signaling 4) with sequencing grade trypsin (Promega) and the peptide sample was dried completely in a vacuum centrifuge. To prepare a loading control, 2 μL each of light and heavy nuclear extract were combined, 6 μL of 8M urea was added, proteins were denatured by adding 2 μL of 100 mM dithiothreitol in digest buffer (50 mM ammonium bicarbonate) and heating to 60° C. for 1 hour, cysteine was alkylated by adding 2.2 μL 100 mg/mL iodoacetamide in digest buffer and incubating 1 hour at room temperature in darkness, and proteins were digested by adding 80 μL trypsin (Promega) at 12.5 ng/μL in digest buffer and incubating overnight at room temperature in darkness. Digestion was stopped by adding 10 μL of 10% formic acid.
Each experiment consisted of two sets of pull-downs: “forward” labeling with 3×MBT incubated with light nuclear extract and 3×MBTD355N with medium extract, and a second “reverse” labeling experiment with the label conditions swapped. Proteins were included in the results if they were quantified in both labeling directions. To determine reproducibility the entire experiment including the label swap was duplicated using independent protein preparations and a mass spectrometer at another institution.
For 3×MBT pull-down experiment #1 the gel lane was processed and peptides were loaded off-line onto a first dimension trap column (Waters Xbridge, C18, 10 μm particle size, 100 Å pore size, 5 cm packing length, 150 μm column i.d.). […]

B1: NHP2L1: protein with methylated lysine identified in 3xMBT pull-down (protein, UniProt P55769 1-128, looked up)
NHP2-like protein 1: MTEADVNPKAYPLADAHLTKKLLDLVQQSCNYKQLRKGANEATKTLNRGISEFIVMAADAEPLEIILHLPLLCEDKNVPYVFVRSKQALGRACGVSRPVIACSVTIKEGSQLKQQIQSIQQSIERLLV
Question: With B1 as the molecule, how does the “Protein Ratio 3xMBT/D355N” value read?
Answer: The value was 4.4*.

B2: GTF2I: protein with methylated lysine identified in 3xMBT pull-down (protein, UniProt P78347 2-998, looked up)
General transcription factor …: AQVAMSTLPVEDEESSESRMVVTFLMSALESMCKELAKSKAEVACIAVYETDVFVVGTERGRAFVNTRKDFQKDFVKYCVEEEEKAAEMHKMKSTTQANRMSVDAVEIETLRKTVEDYFCFCYGKALGKSTVVPVPYEKMLRDQSAVVVQGLPEGVAFKHPENYDLATLKWILENKAGISFIIKRPFLEPKKHVGGRVMVTDADRSILSPGGSCGPIKVKTEPTEDSGISLEMAAVTVKEESEDPDYYQYNIQAGPSETDDVDEKQPLSKPLQGSHHSSEGNEGTEMEVPAEDSTQHVPSETSEDPEVEVTIEDDDYSPPSKRPKANELPQPPVPEPANAGKRKVREFNFEKWNARITDLRKQVEELFERKYAQAIKAKGPVTIPYPLFQSHVEDLYVEGLPEGIPFRRPSTYGIPRLERILLAKERIRFVIKKHELLNSTREDLQLDKPASGVKEEWYARITKLRKMVDQLFCKKFAEALGSTEAKAVPYQKFEAHPNDLYVEGLPENIPFRSPSWYGIPRLEKIIQVGNRIKFVIKRPELLTHSTTEVTQPRTNTPVKEDWNVRITKLRKQVEEIFNLKFAQALGLTEAVKVPYPVFESNPEFLYVEGLPEGIPFRSPTWFGIPRLERIVRGSNKIKFVVKKPELVISYLPPGMASKINTKALQSPKRPRSPGSNSKVPEIEVTVEGPNNNNPQTSAVRTPTQTNGSNVPFKPRGREFSFEAWNAKITDLKQKVENLFNEKCGEALGLKQAVKVPFALFESFPEDFYVEGLPEGVPFRRPSTFGIPRLEKILRNKAKIKFIIKKPEMFETAIKESTSSKSPPRKINSSPNVNTTASGVEDLNIIQVTIPDDDNERLSKVEKARQLREQVNDLFSRKFGEAIGMGFPVKVPYRKITINPGCVVVDGMPPGVSFKAPSYLEISSMRRILDSAEFIKFTVIRPFPGLVINNQLVDQSESEGPVIQESAEPSQLEVPATEEIKETDGSSQIKQEPDPTW
modifications: methylated lysine
notes: protein with methylated lysine identified in 3xMBT pull-down
Question: With B2 as the molecule, how does the “Protein Ratio 3xMBT/D355N” value read?
Answer: Its value is 1.5.

B3: eEF1A1: protein with methylated lysine identified in 3xMBT pull-down (protein, UniProt P68104 2-462, looked up)
Elongation factor 1-alpha 1: GKEKTHINIVVIGHVDSGKSTTTGHLIYKCGGIDKRTIEKFEKEAAEMGKGSFKYAWVLDKLKAERERGITIDISLWKFETSKYYVTIIDAPGHRDFIKNMITGTSQADCAVLIVAAGVGEFEAGISKNGQTREHALLAYTLGVKQLIVGVNKMDSTEPPYSQKRYEEIVKEVSTYIKKIGYNPDTVAFVPISGWNGDNMLEPSANMPWFKGWKVTRKDGNASGTTLLEALDCILPPTRPTDKPLRLPLQDVYKIGGIGTVPVGRVETGVLKPGMVVTFAPVNVTTEVKSVEMHHEALSEALPGDNVGFNVKNVSVKDVRRGNVAGDSKNDPPMEAAGFTAQVIILNHPGQISAGYAPVLDCHTAHIACKFAELKEKIDRRSGKKLEDGPKFLKSGDAAIVDMVPGKPMCVESFSDYPPLGRFAVRDMRQTVAVGVIKAVDKKAAGAGKVTKSAQKAQKAK
modifications: methylated lysine
notes: as for B2
Question: With B3 as the molecule, how does the “Protein Ratio 3xMBT/D355N” value read?
Answer: The value was 5.2.

B4: CMAS: protein with methylated lysine identified in 3xMBT pull-down (protein, UniProt Q8NFW8 1-434, looked up)
N-acylneuraminate …: MDSVEKGAATSVSNPRGRPSRGRPPKLQRNSRGGQGRGVEKPPHLAALILARGGSKGIPLKNIKHLAGVPLIGWVLRAALDSGAFQSVWVSTDHDEIENVAKQFGAQVHRRSSEVSKDSSTSLDAIIEFLNYHNEVDIVGNIQATSPCLHPTDLQKVAEMIREEGYDSVFSVVRRHQFRWSEIQKGVREVTEPLNLNPAKRPRRQDWDGELYENGSFYFAKRHLIEMGYLQGGKMAYYEMRAEHSVDIDVDIDWPIAEQRVLRYGYFGKEKLKEIKLLVCNIDGCLTNGHIYVSGDQKEIISYDVKDAIGISLLKKSGIEVRLISERACSKQTLSSLKLDCKMEVSVSDKLAVVDEWRKEMGLCWKEVAYLGNEVSDEECLKRVGLSGAPADACSTAQKAVGYICKCNGGRGAIREFAEHICLLMEKVNNSCQK
Question: B4 was tested. Which “Protein Ratio 3xMBT/D355N” value did it give?
Answer: The value was 4.2.

B5: MCM4: protein with methylated lysine identified in 3xMBT pull-down (protein, UniProt P33991 2-863, looked up)
DNA replication licensing …: SSPASTPSRRGSRRGRATPAQTPRSEDARSSPSQRRRGEDSTSTGELQPMPTSPGVDLQSPAAQDVLFSSPPQMHSSAIPLDFDVSSPLTYGTPSSRVEGTPRSGVRGTPVRQRPDLGSAQKGLQVDLQSDGAAAEDIVASEQSLGQKLVIWGTDVNVAACKENFQRFLQRFIDPLAKEEENVGIDITEPLYMQRLGEINVIGEPFLNVNCEHIKSFDKNLYRQLISYPQEVIPTFDMAVNEIFFDRYPDSILEHQIQVRPFNALKTKNMRNLNPEDIDQLITISGMVIRTSQLIPEMQEAFFQCQVCAHTTRVEMDRGRIAEPSVCGRCHTTHSMALIHNRSLFSDKQMIKLQESPEDMPAGQTPHTVILFAHNDLVDKVQPGDRVNVTGIYRAVPIRVNPRVSNVKSVYKTHIDVIHYRKTDAKRLHGLDEEAEQKLFSEKRVELLKELSRKPDIYERLASALAPSIYEHEDIKKGILLQLFGGTRKDFSHTGRGKFRAEINILLCGDPGTSKSQLLQYVYNLVPRGQYTSGKGSSAVGLTAYVMKDPETRQLVLQTGALVLSDNGICCIDEFDKMNESTRSVLHEVMEQQTLSIAKAGIICQLNARTSVLAAANPIESQWNPKKTTIENIQLPHTLLSRFDLIFLLLDPQDEAYDRRLAHHLVALYYQSEEQAEEELLDMAVLKDYIAYAHSTIMPRLSEEASQALIEAYVDMRKIGSSRGMVSAYPRQLESLIRLAEAHAKVRLSNKVEAIDVEEAKRLHREALKQSATDPRTGIVDISILTTGMSATSRKRKEELAEALKKLILSKGKTPALKYQQLFEDIRGQSDIAITKDMFEEALRALADDDFLTVTGKTVRLL
modifications: methylated lysine
notes: as for B2
Question: For B5, which “Protein Ratio 3xMBT/D355N” value is on record?
Answer: The value was 6.6.

B6: DDX1: protein with methylated lysine identified in 3xMBT pull-down (protein, UniProt Q92499 1-740, looked up)
ATP-dependent RNA helicase …: MAAFSEMGVMPEIAQAVEEMDWLLPTDIQAESIPLILGGGDVLMAAETGSGKTGAFSIPVIQIVYETLKDQQEGKKGKTTIKTGASVLNKWQMNPYDRGSAFAIGSDGLCCQSREVKEWHGCRATKGLMKGKHYYEVSCHDQGLCRVGWSTMQASLDLGTDKFGFGFGGTGKKSHNKQFDNYGEEFTMHDTIGCYLDIDKGHVKFSKNGKDLGLAFEIPPHMKNQALFPACVLKNAELKFNFGEEEFKFPPKDGFVALSKAPDGYIVKSQHSGNAQVTQTKFLPNAPKALIVEPSRELAEQTLNNIKQFKKYIDNPKLRELLIIGGVAARDQLSVLENGVDIVVGTPGRLDDLVSTGKLNLSQVRFLVLDEADGLLSQGYSDFINRMHNQIPQVTSDGKRLQVIVCSATLHSFDVKKLSEKIMHFPTWVDLKGEDSVPDTVHHVVVPVNPKTDRLWERLGKSHIRTDDVHAKDNTRPGANSPEMWSEAIKILKGEYAVRAIKEHKMDQAIIFCRTKIDCDNLEQYFIQQGGGPDKKGHQFSCVCLHGDRKPHERKQNLERFKKGDVRFLICTDVAARGIDIHGVPYVINVTLPDEKQNYVHRIGRVGRAERMGLAISLVATEKEKVWYHVCSSRGKGCYNTRLKEDGGCTIWYNEMQLLSEIEEHLNCTISQVEPDIKVPVDEFDGKVTYGQKRAAGGGSYKGHVDILAPTVQELAALEKEAQTSFLHLGYLPNQLFRTF
Question: With B6 as the molecule, how does the “Protein Ratio 3xMBT/D355N” value read?
Answer: The value was 11.2.
